Experimental data: patent publication US20240247301A1, “DIAGNOSTIC ASSAY FOR CLASSIC INBORN GALACTOSEMIA” (Ohio State Innovation Foundation, priority 2022, published 2024)
Several values for one entry are separate records, joined by “and”; a condition that tells them apart may be missing. Equal entries are not always repeated.

Substrate: O=P(O)(O)O[C@H]1O[C@H](CO)[C@H](O)[C@H](O)[C@H]1O
Assay: purified protein, by the assay type
[1] = other: SUMO-tagged YidA as coupling enzyme, pH 8.0

B1: Duarte GalT (galactose-1-phosphate uridylyltransferase, Duarte variant) (Homo sapiens; N314D) (protein)
chain: MSRSGTDPQQRQQASEADAAAATFRANDHQHIRYNPLQDEWVLVSAHRMKRPWQGQVEPQLLKTVPRHDPLNPLCPGAIRANGEVNPQYDSTFLFDNDFPALQPDAPSPGPSDHPLFQAKSARGVCKVMCFHPWSDVTLPLMSVPEIRAVVDAWASVTEELGAQYPWVQIFENKGAMMGCSNPHPHCQVWASSFLPDIAQREERSQQAYKSQHGEPLLMEYSRQELLRKERLVLTSEHWLVLVPFWATWPYQTLLLPRRHVRRLPELTPAERDDLASIMKKLLTKYDNLFETSFPYSMGWHGAPTGSEAGANWDHWQLHAHYYPPLLRSATVRKFMVGYEMLAQAQRDLTPEQAAERLRALPEVHYHLGQKDRETATIA
Km [1]: 890 ± 30 µM | kcat [1]: 14.8 ± 0.867 s⁻¹ | Km (other: mean ± SD of three independent trials, pH 8.0): 660 ± 20 µM and 530 ± 40 µM | Km (other: single trials, ± curve-fit error, pH 8, 37° C., 0.8 mM UDP-glucose, 37.0 °C): 550 ± 90 µM and 480 ± 30 µM | Km (other: single trials, ± curve-fit error, pH 8.0, 37° C., 1 mM UDP-glucose, 37.0 °C): 670 ± 180 µM and 630 ± 140 µM and 670 ± 150 µM
